Experimental data published in US20190353654A1 (published 2019).

T1: CCL28 (UniProt Q9NRJ3 20-127)
T1 construct: range 20-127; also called CCL2820-127
T1 sequence (looked up): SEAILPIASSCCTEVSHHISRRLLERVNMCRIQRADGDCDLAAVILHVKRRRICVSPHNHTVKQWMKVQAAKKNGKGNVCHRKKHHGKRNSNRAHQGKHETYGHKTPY

T2: CCL27 (UniProt Q9Y4X3 25-112, limits assumed)
T2 sequence (looked up): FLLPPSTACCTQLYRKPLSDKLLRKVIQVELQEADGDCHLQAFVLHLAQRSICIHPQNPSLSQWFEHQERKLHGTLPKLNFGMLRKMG

T3: CXCL11 (UniProt O14625 22-94)
T3 sequence (looked up): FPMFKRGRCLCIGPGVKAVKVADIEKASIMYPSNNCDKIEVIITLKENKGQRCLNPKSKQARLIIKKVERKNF

B1: CXCR4^QTY (receptor, not shown: small tags and cut ends)
chain: MEGISIYTSDNYTEEMGSGDYDSMKEPCFREENANFNKTYQPTTYSTTYQTGTTGQGQTTQTMGYQKKQRSMTDKYRQHQSTADQQYTTTQPYWATDATANWYFGNFQCKATHTTYTTQQYSSTQTQAYTSQDRYLAIVHATNSQRPRKQQAEKTTYTGTWTPAQQQTTPDYTYANVSEADDRYICDRFYPNDLWTTTYQYQHTMTGQTQPGTTTQSCYCTTTSKLSHSKGHQKRKALKTTTTQTQAYYACWQPYYTGTSTDSFILLEIIKQGCEFENTVHKWTSTTEAQAYYHCCQQPTQYAYQGAKYKTSAQHAQTSTSRGSSQKTQSKGKRGGHSSTSTESESSSFHSS
modifications: Receptor labelled with NT647 dye (RED-NHS, on amines) for MST; sites not specified
B2: CCR10^QTY (receptor, not shown: small tags and cut ends)
chain: MGTEATEQVSWGHYSGDEEDAYSAEPLPELCYKADVQAFSRAFQPSVSLTVAAQGQAGNGQTQATHQAARRAARSPTSAHQQQQAQADQQQAQTQPYAAAGALQGWSLGSATCRTTSGQYSASYHAGYQYQACTSADRYVAIARALPAGPRPSTPGRAHQTSTTTWQQSQQQAQPAQQYSQDGQREGQRRCRLIFPEGLTQTVKGASATAQTAQGYAQPQGTMTACYALLGRTLLAARGPERRRALRTTTAQTAAYTTQQQPYSQAQQQDTADLLAARERSCPASKRKDVAQQTTSGQAQARCGQNPTQYAYQGLRFRQDLRRLLRGGSCPSGPQPRRGCPRRPRLSSCSAPTETHSLSWDN
modifications: Receptor labelled with NT647 dye (RED-NHS, on amines) for MST; sites not specified
notes: Expressed in SF9 insect cells and purified without detergent
B3: CXCR7^QTY (receptor)
chain: MDLHLFDYSEPGNFSDISWPCNSSDCIVVDTVMCPNMPNKSTQQYTQSYTYTYTYTTGMTANSVVVWVNIQAKTTGYDTHCYTQNQATADQWTTQTTPTWTTSLVQHNQWPMGELTCKTTHQTYSTNQYGSTYYQTCMSVDRYLSITYFTNTPSSRKKMVRRTTCTQTWQQAYCTSQPDTYYQKTVTSASNNETYCRSFYPEHSIKEWLIGMEQTSTTQGYATPYSTTATYYYQLARAISASSDQEKHSSRKTTYSYTTTYQTCWQPYHTATQLDIFSILHYIPFTCRLEHALFTAQHTTQCQSQTHCCTNPTQYSYTNRNYRYELMKAFIFKYSAKTGLTKLIDASRVSETEYSALEQSTK
modifications: The receptor was labelled with NT647 (RED-NHS dye on lysines, positions not defined) for MST. The letters do not carry this.
notes: Expressed in SF9 insect cells and purified without detergent; not shown: C-terminal His tag
B4: CCR5^QTY (receptor, not shown: small tags and cut ends)
chain: MDYQVSSPIYDINYYTSEPCQKINVKQIAARQQPPQYSQTFTYGFTGNMQTTQTQINCKRLKSMTDIYLQNQAISDQYYQQTTPYWAHYAAAQWDFGNTMCQQQTGQYFTGYYSGTYYTTQQTTDRYLAVVHAVFALKARTTTYGTTTSTTTWTTATYASQPGTTYTRSQKEGLHYTCSSHFPYSQYQFWKNFQTLKITIQGQVQPQQTMVTCYSGTQKTLLRCRNEKKRHRAVRQTFTTMTTYYQYWAPYNTTQQLNTFQEFFGLNNCSSSNRLDQAMQVTETQGMTHCCTNPTIYAYVGEKFRNYLLVFFQKHIAKRFCKCCSIFQQEAPERASSVYTRSTGEQEISVGL
modifications: Receptor labelled with NT647 dye (RED-NHS, on amines) for MST; sites not specified
notes: Expressed in SF9 insect cells and purified without detergent; also called detergent-free CCR5 variant

How the values were obtained:
[1] = target: T4, HIV-1 coat protein gp41-120 (HIV-1); assay: MicroScale Thermophoresis, labeled receptor, ligand titrated, in 50% human serum
T4 construct: also called HIV coat proteins gp41-120; HIV surface protein gp41-120

[2] = target: T4, HIV-1 coat protein gp41-120; assay: MicroScale Thermophoresis, labeled receptor, ligand titrated, in buffer (1x PBS, 5 mM DTT)
human insulin = human insulin (human, UniProt P01308 25-54; P01308 90-110); assay: MicroScale Thermophoresis, 5 nM labeled receptor, insulin titrated
CCL28 [3] = target: T1, CCL28; assay: MicroScale Thermophoresis, labeled receptor, ligand titrated, in buffer (1x PBS, 5 mM DTT)
CCL27 [4] = target: T2, CCL27; assay: as above
CCL28 [5] = target: T1, CCL28; assay: MicroScale Thermophoresis, labeled receptor, ligand titrated, in 50% human serum
CCL27 [6] = target: T2, CCL27; assay: as above
CXCL11 [7] = target: T3, CXCL11; assay: MicroScale Thermophoresis, labeled receptor, ligand titrated, in buffer (1x PBS, 5 mM DTT)
CXCL11 [8] = target: T3, CXCL11; assay: MicroScale Thermophoresis, labeled receptor, ligand titrated, in 50% human serum
[9] = target: T4, HIV-1 coat protein gp41-120; assay: as above; remark: listed apart in the source

Binder | Kd [1] [nM] | Kd [2] [nM] | binding result (human insulin) | Kd (CCL28 [3]) [nM] | Kd (CCL27 [4]) [nM] | Kd (CCL28 [5]) [nM] | Kd (CCL27 [6]) [nM] | Kd (CXCL11 [7]) [nM] | Kd (CXCL11 [8]) [nM] | Kd [9] [nM]
B1 | 185 | 117 | no binding (tested: 0.153 nM-5,000 nM insulin) | – | – | – | – | – | – | –
B2 | – | – | no binding (tested: 0.153 nM-5,000 nM insulin) | 9.3 | 3.1 | 21 | 5.6 | – | – | –
B3 | 7 | 1.2 | no binding (tested: 0.153 nM-5,000 nM insulin) | – | – | – | – | 16 | 28 | –
B4 | – | 3.1 | no binding (tested: 0.153 nM-5,000 nM insulin) | – | – | – | – | – | – | 4.3
